Test results taken from patent publication US20250276081A1, “Mucin-Active Proteases and Methods of Use” (priority 2022, published 2025).

Key:
Type in all cases: cell-based
[1] = test system: MCF10A cells expressing MUC1 ectodomain; assay: MCF10A^MUC1 suspension survival assay
Experimental: MCF10A^MUC1 suspension survival assay. MCF10A cells expressing a cytoplasmic truncation 5 of MUC1 (MUC1ΔCT, also referred to as MUC1 ectodomain) were used to limit any possible cytoplasmic signaling^1. MUC1ΔCT was induced with 200 ng/ml doxycycline for 24 h. Uninduced and induced cells were seeded at 3×10^5 cells/well in a 24-well ultra-low attachment plate (Corning) in 0.75 mL of complete media. 200 ng/mL doxycycline and 10 nM StcE were added as appropriate. The plate was incubated at 37° C., 5% CO2, 125 rpm. At t=0, 24, 48, and 72 h, cells were spun down at 350×g for 5 min, resuspended in 200 μL of phosphate-buffered saline (PBS) with 0.1% benzonase (Sigma-Aldrich), and incubated at room temperature for 15 min. Cells were then resuspended in 200 μL of enzyme-free cell dissociation buffer (Thermo Fisher Scientific) and stained with 100 nM Calcein AM (Thermo Fisher Scientific) and 5 nM Sytox Red Dead Cell Stain (Thermo Fisher Scientific) for 20 min at 4° C., prior to analysis using a BD Accuri C6 plus. Videos of MCF10A^MUC1 cells freshly seeded on standard tissue culture plates (Corning) and treated with and without 1 nM StcE were generated with images taken at 30 min intervals for 18 h using an Incucyte. The Incucyte was set to 37° C. and 5% CO2, and cells were incubated in complete media with 200 ng/ml doxycycline.

[2] = test system: Siglec-7 ligand (K562, CCRF-CEM, CCRF-HSB-2 cells); assay: Siglec-7-Fc flow cytometry of leukemia cell lines; conditions: 50 nM StcE, 1 h
Experimental: CD43 and Siglec-7-Fc flow cytometry. 1×10^6 K562, CCRF-CEM, or CCRF-HSB-2 cells growing in log phase were harvested, resuspended in 1 mL of serum-free RPMI, and treated with either vehicle or 50 nM StcE for 1 h. Cells were subsequently spun down at 600× g and washed twice in PBS. Cells were then resuspended in FACS buffer (0.5% BSA in PBS) at 1×10^6 cells/mL and aliquoted into a V-bottom 96-well plate (Corning) at 1×10^5 cells/well. For staining, a precomplex solution of 1 μg/mL Siglec-7-Fc (R&D Systems) and 1 μg/mL Alexa Fluor 488-antihFc was made up in FACS buffer and incubated on ice for 1 h. Alexa Fluor 647 CD43/sialophorin antibody (MEM-59 clone) (Novus Biologicals) was subsequently added to the precomplex solution prior to staining. Cells were stained in 100 μL of staining solution for 30 min, washed twice with FACS buffer, and analyzed by flow cytometry using a BD Accuri C6 plus.

[3] = biological target: T1, cell surface mucins (CD43) on mixed K562^±HER2 cells (Homo sapiens, UniProt P16150); assay: K562 mixed cell CD43 cleavage assay; conditions: 1 nM, overnight
T1 construct: endogenous in cells; host or cells: K562 and K562^HER2 (HER2 retrovirally transduced; CD43 endogenous)
T1 sequence (P16150 20-400): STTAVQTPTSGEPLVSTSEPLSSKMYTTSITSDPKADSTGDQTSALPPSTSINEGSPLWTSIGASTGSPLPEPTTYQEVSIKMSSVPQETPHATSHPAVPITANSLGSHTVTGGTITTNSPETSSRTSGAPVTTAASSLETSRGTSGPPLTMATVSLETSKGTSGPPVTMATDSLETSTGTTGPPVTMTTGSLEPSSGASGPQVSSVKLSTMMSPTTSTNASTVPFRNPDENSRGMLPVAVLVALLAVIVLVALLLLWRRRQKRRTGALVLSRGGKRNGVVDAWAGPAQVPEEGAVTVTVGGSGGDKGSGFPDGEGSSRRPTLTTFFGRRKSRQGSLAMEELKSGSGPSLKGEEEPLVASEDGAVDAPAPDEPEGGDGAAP
Experimental: K562 mixed cell CD43 cleavage assay. 2.5×10^5 K562 and K562^HER2 cells were allocated per well to a 96-well ultra-low attachment round bottom plate in 150 μL of complete media. 50 μL of mucinases in PBS were added to wells and the plate was incubated (overnight unless stated otherwise) at 37° C. Cells were washed twice with cold FACS buffer with 2 mM EDTA, once with cold FACS buffer, and stained with Alexa Fluor 488 anti-human CD340 (erbB2/HER-2) antibody (24D2 clone) (BioLegend) and Alexa Fluor 647 CD43/sialophorin antibody (MEM^−59 clone) (Novus Biologicals) in FACS buffer supplemented with 0.1% benzonase on ice protected from light. Cells were washed three times with cold FACS buffer with 2 mM EDTA and stained with 1 μM Sytox AADvanced (Thermo Fisher Scientific) or 1 μM Sytox Blue in FACS buffer with 2 mM EDTA for 5 min on ice prior to analysis using a BD Accuri C6 plus or MACSQuant Analyzer 10 Flow Cytometer (Miltenyi Biotec). Samples were compensated using single-stained controls in FlowJo v. 10.0. Unstained and PBS-treated samples were used to define 0% and 100% cell surface CD43, respectively, and each sample was normalized to percent CD43 within each replicate. Using GraphPad Prism 9, replicates were fitted to inhibitor concentration vs normalized response.

## StcE: secreted protease of C1 esterase inhibitor, zinc metalloprotease pan mucinase from E. coli O157:H7; SEQ ID NO:1
[1]; 10 nM StcE, ultralow attachment plates, over 72 h
  Viability of MUC1-overexpressing cells under anchorage-free conditions: rapid cell death
[1]; nanomolar doses (1 nM StcE)
  Toxicity to MUC1-expressing cells in standard tissue culture plates: low toxicity
[2]
  Siglec-7 ligand residency: loss of cell surface CD43 and overall Siglec-7 ligand residency
[3]
  Removal of cell surface mucins on HER2- cells: complete removal
  Removal of cell surface mucins on HER2^+ cells: complete removal
